Test results from article PMC11927390 (2025).

B1: Fc-tagged human NKG2D (Fc fusion)
chain: IWSAVFLNSLFNQEVQIPLTESYCGPCPKNWICYKNNCYQFFDESKNWYESQASCMSQNASLLKVYSKEDQDLLKLVKSYHWMGLVHIPTNGSWQWEDGSILSPNLLTIIEMQKGDCALYASSFKGYIENCSTPNTYICMQRTV

molecular target: MICB; assay: SPR

| Binder | Kd [µM] |
| --- | --- |
| B1 | 0.105 |

Molecular target: B1
Assay: SPR

| Binder | Kd [µM] |
| --- | --- |
| human ULBP1 (ligand) GWVDTHCLCYDFIITPKSRPEPQWCEVQGLVDERPFLHYDCVNHKAKAFASLGKKVNVTKTWEEQTETLRDVVDFLKGQLLDIQVENLIPIEPLTLQARMSCEHEAHGHGRGSWQFLFNGQKFLLFDSNNRKWTALHPGAKKMTEKWEKNRDVTMFFQKISLGDCKMWLEEFLMYWEQMLDPTKPPSLAPG | 0.138 |
| human ULBP6-02 extracellular domain (residues R26-G218) (ligand, glycosylation of residues N68 and N82 (in the crystal structure)) RRDDPHSLCYDITVIPKFRPGPRWCAVQGQVDEKTFLHYDCGNKTVTPVSPLGKKLNVTMAWKAQNPVLREVVDILTEQLLDIQLENYTPKEPLTLQARMSCEQKAEGHSSGSWQFSIDGQTFLLFDSEKRMWTTVHPGARKMKEKWENDKDVAMSFHYISMGDCIGWLEDFLMGMDSTLEPSAGAPLAMSSG | 0.00269 |
| human ULBP6-01 (residues G26-G218) (ligand) GRDDPHSLCYDITVIPKFRPGPRWCAVQGQVDEKTFLHYDCGNKTVTPVSPLGKKLNVTTAWKAQNPVLREVVDILTEQLRDIQLENYTPKEPLTLQARMSCEQKAEGHSSGSWQFSIDGQIFLLFDSEKRMWTTVHPGARKMKEKWENDKDVAMSFHYISMGDCIGWLEDFLMGMDSTLEPSAGAPLAMSSG | 0.0427 |
| human ULBP3 (ligand) DAHSLWYNFTIIHLPRHGQQWCEVQSQVDQKNFLSYDCGSDKVLSMGHLEEQLYATDAWGKQLEMLREVGQRLRLELADTELEDFTPSGPLTLQVRMSCECEADGYIRGSWQFSFDGRKFLLFDSNNRKWTVVHAGARRMKEKWEKDSGLTTFFKMVSMRDCKSWLRDFLMHRKKRLEPTAPPTMAPG | 0.836 |
| human MICA (MHC class I polypeptide-related sequence A), soluble recombinant (ligand) EPHSLRYNLTVLSWDGSVQSGFLTEVHLDGQPFLRCDRQKCRAKPQGQWAEDVLGNKTWDRETRDLTGNGKDLRMTLAHIKDQKEGLHSLQEIRVCEIHEDNSTRSSQHFYYDGELFLSQNLETKEWTMPQSSRAQTLAMNVRNFLKEDAMKTKTHYHAMHADCLQELRRYLKSGVVLRRTVPPMVNVTRSEASEGNITVTCRASGFYPWNITLSWRQDGVSLSHDTQQWGDVLPDGNGTYQTWVATRICQGEEQRFTCYMEHSGNHSTHPVPSGKVLVLQSHW | 0.0832 |
| human ULBP5 (ligand) GLADPHSLCYDITVIPKFRPGPRWCAVQGQVDEKTFLHYDCGSKTVTPVSPLGKKLNVTTAWKAQNPVLREVVDILTEQLLDIQLENYIPKEPLTLQARMSCEQKAEGHGSGSWQLSFDGQIFLLFDSENRMWTTVHPGARKMKEKWENDKDMTMSFHYISMGDCTGWLEDFLMGMDSTLEPSAGAPPTMSSG | 0.0934 |
| human ULBP2 (ligand) GRADPHSLCYDITVIPKFRPGPRWCAVQGQVDEKTFLHYDCGNKTVTPVSPLGKKLNVTTAWKAQNPVLREVVDILTEQLRDIQLENYTPKEPLTLQARMSCEQKAEGHSSGSWQFSFDGQIFLLFDSEKRMWTTVHPGARKMKEKWENDKVVAMSFHYFSMGDCIGWLEDFLMGMDSTLEPSAGAPLAMSS | 0.262 |
